# Experimental data as given in the supplement of paper PMC9732359.
# ± gives the uncertainty stated by the source.
# Assay: protein stability index of a GFP-peptide fusion (yeast GPS) (PSI 1-4); higher = more stable; sorted into four equal gates, so the index is relative within each strain
# Conditions: ubr1∆
# Outline: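 For each peptide, the protein stability index sums the read frequency in every gate after multiplying it by the gate number. Read frequencies came from plasmids that were PCR-amplified from each gate and Illumina-sequenced, with reads assigned to strains by barcodes. The gates were four equal bins of GFP/Cherry fluorescence ratio applied to mid-log yeast in leucine-free medium carrying a pooled library of tiled 17-residue yeast protein peptides fused downstream of GFP on a Cherry-expressing plasmid.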
row,Sequence,protein stability index
1,RTPHEIQEANSVDMSAL [RIP1],3.24 ± 0.076
2,RTQFGGGKSVGFGLVYN [RPS24A],2.91 ± 0.055
3,RVAKGSGTSVFEVEMIL [SRP54],3.42 ± 0.12
4,RVEKIPEIPLVVSTDLE [RPL4A],2.77 ± 0.22
5,RVLETTLVEFETIKMKE [BRN1],1.34 ± 0.086
6,RVVMMKYDRKVPSPTGE [RPO21],2.89 ± 0.043
7,RVVVPQALRVLRLKPGR [RPL16B],1.77 ± 0.1
8,RWDKEEYQSLMSLKDKL [SMC1],3.09 ± 0.053
9,RWYQLIATGCKDGRIRI [YGL100W/SEH1],2.43 ± 0.044
10,RYFFYLSKINAIQLDYS [RPN3],1.33 ± 0.044
11,SAEYLQMSLEANVVDIT [YJR042W/NUP85],2.38 ± 0.058
12,SAGDDGKVRLWKATYSN [YGL100W/SEH1],3 ± 0.058
13,SAGKGISSSAIPYSRNA [RPS13],2.21 ± 0.029
14,SAGQPNLLLSASRDKTL [ASC1],1.91 ± 0.049
15,SAIVNEDGLLEGLDELP [SOH1],2.8 ± 0.12
16,SAKAELEKLVDHHPEGL [PRE10],2.75 ± 0.048
17,SAKEIAKASGCDDESGD [MCD1],2.86 ± 0.14
18,SAKPSQIPTVSSPLGFE [SIR4],3.03 ± 0.047
19,SARGSYLRVSFKNTRET [RPL17A],2.86 ± 0.06
20,SASDALKGRVVEVCLAD [RPS1A],2.43 ± 0.055
21,SASHFEQYTKKINSWDQ [YJL041W/NSP1],3.02 ± 0.052
22,SASKHEYSDNFPVSLSQ [SIR4],3.041 ± 0.029
23,SASSKEFNFTNLQAKPL [YAR002W/NUP60],2.42 ± 0.051
24,SAVKRLLHVAVSDSNDD [RPN2],2.69 ± 0.063
25,SCKDSQLKWAQNTIDDT [YIL149C/MLP2],2.74 ± 0.053
26,SCTFWSDKESNAYGFIE [YJL039C/NUP192],3.26 ± 0.09

row,Sequence,protein stability index
1,SDAQSNLGSNVRNSFPL [REC8],3.07 ± 0.055
2,SDESIERLMTWKFKSLI [RRI2],2.31 ± 0.031
3,SDEVSRGIPRLSEDELR [SMC4],3.58 ± 0.1
4,SDIIILKGEIEDYPMSS [SIR4],3.48 ± 0.16
5,SDIISMLQISDDNEMTR [RRI2],2.87 ± 0.1
6,SDIVFIHQNAGRLLRAM [BRR2],2.02 ± 0.06
7,SDLGTVVFDSNEAPPKT [YMR153W/NUP53],2.58 ± 0.069
8,SDNVSFEIQGVPPMKLA [YMR129W/POM152],2.86 ± 0.088
9,SDSEDSDAKEQHQSLSR [ESC2],2.52 ± 0.083
10,SDTSKPAFTFGAQKDNE [YJL041W/NSP1],3.48 ± 0.059
11,SEDLFADGLLQVLVCTA [BRR2],2.25 ± 0.13
12,SEENIGSGLLKLSEIIL [SWI1],3.37 ± 0.06
13,SEHDKKRLSAALSKFLT [YML103C/NUP188],3.13 ± 0.071
14,SEIKQQINKAQILENYN [YJL039C/NUP192],3.11 ± 0.057
15,SEKLITKYFEPTSTENN [ECM29],2.97 ± 0.041
16,SELDSNDFFIIYYTPAF [YJL039C/NUP192],1.55 ± 0.044
17,SELNEGNLSKREIQIDA [SRB8],2.12 ± 0.063
18,SENRFPGWDFETEEIDP [RPL5],2.5 ± 0.16
19,SENVFEGLTYKYPARRI [SSN3],2.86 ± 0.089
20,SEPLTLKVLSEHLDCMN [PCI8],1.93 ± 0.058
21,SETDLNDIPLGSGQPDN [SRB8],2.87 ± 0.056
22,SFAIYSSTIDAPAFHTS [SRB8],2.25 ± 0.045
23,SFDSIDHSWFLLIGCKL [CSI1],2.58 ± 0.05
24,SFGTANTNGTNASANST [YOR098C/NUP1],2.85 ± 0.12
25,SFHVQKKTCSSCGYPSA [RPL37B],2.19 ± 0.059
26,SFIISSLDTLELESITE [NUT1],1.78 ± 0.04

row,Sequence,protein stability index
1,SFLKVDPDLGLDLMFDE [YJL039C/NUP192],3.06 ± 0.091
2,SFSFLNRADGTGEAQVD [YLR335W/NUP2],2.78 ± 0.29
3,SFSVCKIRCFRYISTLT [IRR1],1.31 ± 0.052
4,SGCDSTKPSLRKASCIW [ECM29],2.98 ± 0.066
5,SGDNHTQQSHEQQPEQP [RPT4],2.95 ± 0.049
6,SGEDVIIGKTTPISPDE [RPB2],3.35 ± 0.085
7,SGGSVNLYHVTEDGWIY [PRE2],3.04 ± 0.089
8,SGITGECLQAYIFFGPI [RET1],2.79 ± 0.051
9,SGLPTCDYYNTFLLNNK [RPN2],2.51 ± 0.069
10,SGNSANNMNVNMNLNPQ [GAL11],2.93 ± 0.034
11,SGQKAGLIAARRTGLLR [RPL2A],2.72 ± 0.16
12,SGRTVISPDPNLSIDEV [RPO31],1.92 ± 0.057
13,SGTFYRYNAKAIGSGSE [PUP2],2.98 ± 0.073
14,SGTKSEVLTYVNYLISN [YJL039C/NUP192],2.58 ± 0.044
15,SGYNQEDSMIMNQSSID [RPB2],2.84 ± 0.067
16,SHERFFLSQGLHVVITL [CSN12],2.87 ± 0.12
17,SHINTNVGDNNSTASSS [ARP7],2.84 ± 0.066
18,SHLFNEYSYVDSNMDSI [RPN4],3.06 ± 0.069
19,SHNVDELLEHIETIGHL [RPN5],1.53 ± 0.082
20,SIAAERYDYSDEVGRRS [YCG1],3.04 ± 0.063
21,SIATKRFDAQTGSDREV [RPT3],3.48 ± 0.11
22,SIISSKTSCVVEKRIGK [RGR1],2.69 ± 0.05
23,SIKEHSTTMDGANDLGF [MED1],2.86 ± 0.09
24,SIVLLLLSQFGIKVLPE [YML103C/NUP188],1.42 ± 0.033
25,SIVTVVSSAKFSGKYLK [RPL22B],2.73 ± 0.093
26,SKALYPDYYMIIKYPVA [SNF2],2.53 ± 0.031

row,Sequence,protein stability index
1,SKEVRGSKIRVMWGKVT [RPL33A],2.6 ± 0.067
2,SKFSKQQAKGAFQKVAA [RPL24A],2.54 ± 0.05
3,SKINSTELLDYATKLSK [MED4],2.94 ± 0.15
4,SKLIPEVINKEIENATK [RPS1A],3.16 ± 0.19
5,SKLKKETASFIPTKESL [YIL149C/MLP2],2.57 ± 0.057
6,SKLLREHGYQSRGFEVM [RPB2],2.61 ± 0.19
7,SKLPDPERWLPLRDRST [SRP72],2.46 ± 0.058
8,SKMYNTDKKAFLGALKY [PRP8],2.63 ± 0.11
9,SKNSKLSIICVGGHNVT [SIR3],1.52 ± 0.041
10,SKQNGIEQSITKNIPIT [SSN8],2.84 ± 0.068
11,SKQVQVSQQPLSRGYTC [ECM29],2.92 ± 0.052
12,SKSMKFSRRFDCRDVYC [CSN9],2.66 ± 0.051
13,SKTVKVLKTLIEKFEQV [RPN6],2.83 ± 0.07
14,SKTVVTLSEPVQGELKP [FAS1],2.18 ± 0.033
15,SKVSIEQRKEAAEFVLA [RPN7],2.45 ± 0.06
16,SKWFNLEKIHSIEVQSL [SWI3],2.72 ± 0.12
17,SLAGFHKVQTKLTRELE [RPS7A],2.04 ± 0.058
18,SLAILGMNLLSNLSQNV [SWI1],2.81 ± 0.046
19,SLAQNDCNSALDQLLVL [RPN5],2.37 ± 0.05
20,SLAWSADGQTLFAGYTD [ASC1],3.09 ± 0.1
21,SLDIRHDFIKGLIMLNL [NUT1],1.72 ± 0.057
22,SLEENAMSTVTLGVVGK [SKI6],2.72 ± 0.11
23,SLFSKIKTFFTQKDSAR [YAR002W/NUP60],2.68 ± 0.087
